From patent US20100267638A1, “EXOSITE-DIRECTED THROMBIN INHIBITORS” (CLEVELAND STATE UNIVERSITY, priority 2003, published 2010)
No end group written: not given here. *: point of attachment. SO3 = O=S(=O)(O)*

What was measured:
thrombin [1] = biological target: T1, thrombin (Homo sapiens, UniProt P00734); assay: Inhibition of activation of factor VIII by thrombin (SDS-PAGE); format: biochemical; set-up: Factor Xa cleaves prothrombin to form thrombin; conditions: FIG. 9A
Description: Specifically, FIG. 9A illustrates the inhibition of activation of factor VIII by thrombin, the inhibition resulting from the double sulfonated peptide DYDYQ (1, 2) (SEQ ID NO. 9) binding to thrombin. FIG. 9B illustrates the inhibition of activation of factor V by thrombin, the inhibition resulting from the double sulfonated peptide DYDYQ (1, 2) (SEQ ID NO. 9) binding to thrombin. FIGS. 9A and 9B result from analysis by SDS-PAGE as previously described with regard to FIG. 4(A and B). […] The various fragments of each factor are noted on the right hand side of each figure.

[2] = Clotting time as a function of peptide concentration (FIG. 12); conditions: peptide 500 nM
Description: FIG. 12 is a graph illustrating clotting time as a function of concentration of various peptides of interest as follows: DYDYQ (SEQ ID NO. 11) (filled squares); DYDYQ (1, 2) (or as designated in shorthand form, D5Q1,2) (SEQ ID NO. 9) (filled triangles); DYDYQ-1 (SEQ ID NO. 7) (filled inverted triangles); and DYDYQ-2 (SEQ ID NO. 8) (filled diamonds).

intrinsic tenase = intrinsic tenase (Homo sapiens, UniProt P00451+P00740); assay: Inhibition of intrinsic tenase; format: biochemical; conditions: FIG. 11A
Description: FIG. 11A illustrates inhibition of intrinsic tenase by the double sulfonated peptide DYDYQ (1, 2) (SEQ ID NO. 9). […] As is shown in FIG. 11A, as the concentration of DYDYQ (1, 2) is increased, the reduction in activity is dramatic.
FIG. 11B and its insert panel illustrate the effect of increasing concentration of the peptide DYDYQ (1, 2) (SEQ ID NO. 9) upon the reaction kinetics of intrinsic tenase. Specifically, this figure illustrates the kinetics of inhibition of intrinsic tenase in the presence of the double sulfonated peptide DYDYQ (1, 2). In FIG. 11B, the data are plotted as Vo (initial velocity in arbitrary units) as a function of increasing factor X concentration in the presence of increasing concentration of DYDYQ (1, 2). The concentrations of DYDYDQ (1, 2), in addition with factor VIIIa, are 10 nM (filled triangles), 25 nM (filled diamonds), and 50 nM (filled circles). Control curves of factors VIIIa and IXa (filled squares) and factor IXa (inverted triangles) are also noted. The insert panel of FIG. 11B is presented for greater clarity and details the region of factor X concentration up to 300 nM, and without the curve of 50 nM of DYDYQ (1, 2).

prothrombinase = biological target: T2, prothrombinase (Homo sapiens, UniProt P00734); assay: Assay measuring thrombin formation (prothrombinase inhibition by peptides, DAPA fluorescence); format: biochemical
T2 construct: purchased Haematologic Technologies Inc. (Essex Junction, Vt.)
Method: Assay measuring thrombin formation. The formation of thrombin was analyzed using the fluorescent thrombin inhibitor DAPA as described using a Perkin Elmer LS-50B Luminescence Spectrometer (Perkin-Elmer LLC, Norwalk Conn.) with λex=280 nm, λem=550 nm and a 500 nm long pass filter in the emission beam (Schott KV-500). […] In all cases peptides were preincubated with factor tor Va prior to the assay as described in the legend to the figures. The final concentration of factor tor Va in the mixture was 4 nM with factor Xa at 10 nM, prothrombin at 350 nM, DAPA at 700 nM, in the presence of PCPS vesicles (10 μM). The initial rate of thrombin formation (nM IIa·min^−1) was calculated as described during the initial 5-10 sec of the reaction. To verify if the peptides have any effect on the active-site of thrombin, control experiments were performed as follows: a given peptide (at 100 μM) was incubated in the assay buffer containing DAPA (700 nM); the base line was monitored for 30 sec; thrombin (350 nM) was then added to the mixture and the fluorescent intensity resulting from the complexation of DAPA with the active site of thrombin was monitored for 60 sec. The slope of the reaction measuring thrombin formation in the presence of a given peptide during the first 5 sec was calculated and compared to the slope of a reaction obtained in the absence of peptide. It is noteworthy that under the conditions employed the thrombin-DAPA interaction occurred fast and the calculated slope of the reaction was sensitive to all parameters used. […] All experiments were performed in triplicates or as indicated. The concentration of each peptide given in the figures and figure legends is their final concentration in the assay. […] In some cases the data were also analyzed and plotted using DeltaGraph (DeltaPoint, Monterey, Calif.).
Specifically, peptides were incubated with factor tor Va as described herein at a fixed concentration (100 μM). The percent of factor tor Va cofactor activity was calculated by comparing the activity of prothrombinase in the presence of a given peptide to the activity of prothrombinase determined in a control reaction in the absence of peptide and in the presence of factor Xa. […] The control peptide represents a pentadecapeptide from the middle portion of factor tor Va heavy chain (P15H) (SEQ ID NO. 22). […] All other peptides from region 680-709 had no significant effect on prothrombinase activity.
HC3 represents amino acid sequence 690-699 of factor tor Va heavy chain; HC4 contains the sequence 695-704 of human factor tor Va heavy chain; P15H represents amino acid sequence 337-351 from the middle portion of human factor tor Va heavy chain. […] The concentration of each peptide given on the x axis represents its final concentration in the prothrombinase mixture. […] Thus, both peptides show similar inhibitory potential.

thrombin [3] = biological target: T1, thrombin; assay: Activation of plasma factor V by thrombin preincubated with peptide (SDS-PAGE, immunoblotting); format: biochemical; set-up: Factor Xa cleaves prothrombin to form thrombin; purchased Haematologic Technologies Inc. (Essex Junction, Vt.); conditions: FIG. 9B
Method: Gel Electrophoresis and western blotting. Sodium dodecyl sulfate polyacrylamide gel electrophoresis (SDS-PAGE) analyses were performed using 4-12% gradient gels according to the method of Laemmli. In several experiments, proteins were transferred to polyvinylidene difluoride (PVDF) membranes according to the method described by Towbin et al. After transfer to nitrocellulose, factor V heavy and light chain(s) were detected using the appropriate monoclonal and polyclonal antibodies. Immunoreactive fragments were visualized with chemiluminescence.
Factor V (250 nM) was incubated with thrombin (1 nM). And FIG. 4B illustrates thrombin (1 nM) was preincubated with 100 μM peptide DYDYQ and the mixture was added to factor V (250 nM). […] Fragments were identified following staining with monoclonal antibody αHFV#17 that recognizes an epitope between amino acid residues 307-506 of factor V and chemiluminescence as described. Lane 1 in both panels depicts aliquots of the mixture withdrawn from the reaction before the addition of thrombin or thrombin/peptide mixture while lanes 2-7 show aliquots of the reaction mixture withdrawn at 30 sec, 1 min, 3 min, 5 min, 10 min, 15 min following the addition of thrombin alone or of thrombin/peptide mixture. The time of incubation is shown at the bottom of the figure. Position of the molecular weight markers is indicated at left.

intrinsic tenase, sequence (P00740 227-461 limits assumed): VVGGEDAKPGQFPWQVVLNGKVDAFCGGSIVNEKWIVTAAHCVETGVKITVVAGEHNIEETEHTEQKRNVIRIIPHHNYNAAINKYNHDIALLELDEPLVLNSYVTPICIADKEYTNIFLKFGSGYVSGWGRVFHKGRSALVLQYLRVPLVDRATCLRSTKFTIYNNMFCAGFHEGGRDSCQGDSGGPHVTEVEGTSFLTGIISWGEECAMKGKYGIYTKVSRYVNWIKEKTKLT
intrinsic tenase, sequence (P00451 1709-2351 limits assumed): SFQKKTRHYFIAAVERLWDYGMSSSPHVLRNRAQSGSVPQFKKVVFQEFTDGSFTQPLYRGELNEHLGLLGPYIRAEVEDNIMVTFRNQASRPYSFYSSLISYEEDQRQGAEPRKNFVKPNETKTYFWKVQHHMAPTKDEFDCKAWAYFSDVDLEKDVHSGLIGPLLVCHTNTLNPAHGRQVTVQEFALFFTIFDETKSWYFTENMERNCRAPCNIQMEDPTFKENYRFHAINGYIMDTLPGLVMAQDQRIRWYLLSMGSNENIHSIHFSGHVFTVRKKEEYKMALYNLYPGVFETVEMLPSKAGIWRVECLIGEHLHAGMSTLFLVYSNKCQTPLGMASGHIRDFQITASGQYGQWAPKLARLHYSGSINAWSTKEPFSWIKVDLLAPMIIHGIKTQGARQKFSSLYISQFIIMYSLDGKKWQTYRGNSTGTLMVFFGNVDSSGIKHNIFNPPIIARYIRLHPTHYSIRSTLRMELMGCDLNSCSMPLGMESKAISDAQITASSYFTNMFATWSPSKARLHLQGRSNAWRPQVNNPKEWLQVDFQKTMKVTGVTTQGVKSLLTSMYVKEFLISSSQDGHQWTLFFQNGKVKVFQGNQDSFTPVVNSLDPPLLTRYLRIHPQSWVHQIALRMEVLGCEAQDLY

inhibition of activation of factor VIII by thrombin (thrombin [1]): potent inhibitor
inhibition of intrinsic tenase (intrinsic tenase): dramatic reduction
rank of inhibitory effect on prothrombinase among peptides (prothrombinase; FIG. 10A): greatest inhibitory effect
inhibition of prothrombinase activity with increasing peptide (prothrombinase; FIG. 10A, up to 8000 nM): significant inhibitory effects
type of inhibition of prothrombinase with respect to prothrombin (prothrombinase; kinetic analyses, increasing prothrombin and peptide): competitive inhibition mechanism
inhibition of activation of factor V by thrombin (thrombin [3]): potent inhibitor
Substance: DY(—SO3)DY(−SO3)Q (DY(SO3)DY(SO3)Q) [DYDYQ-1,2, double sulfonated peptide DYDYQ]
clotting time [2]: relatively long clotting times
rank of clotting time among peptides [2]: longest clotting time
